The text below walks through data of article doi:10.1101/2020.04.14.041327 (bioRxiv, 2020).

For data set [1], the target named is linear M1-linked tri-ubiquitin (UniProt P0CG48). The data set can be described thus: ITC.
Data set [2] deals with linear M1-linked tetra-ubiquitin (UniProt P0CG48). The data set can be described thus: ITC.
The target of data set [3] is linear M1-linked tri-ubiquitin (UniProt P0CG48). The data set can be described thus: SEC-MALS.
Data set [4] has as its target linear M1-linked tetra-ubiquitin (UniProt P0CG48). As to the kind of experiment: SEC-MALS.
The data set “SEC-MALS” concerns the molecule itself. As to the kind of experiment: SEC-MALS.
Data set [5] addresses linear M1-linked tri-ubiquitin (UniProt P0CG48). As to the kind of experiment: SPR.
Data set [6] has as its target linear M1-linked tetra-ubiquitin (UniProt P0CG48). The data set can be described thus: SPR.

linear M1-linked tetra-ubiquitin, sequence (P0CG48 1-304): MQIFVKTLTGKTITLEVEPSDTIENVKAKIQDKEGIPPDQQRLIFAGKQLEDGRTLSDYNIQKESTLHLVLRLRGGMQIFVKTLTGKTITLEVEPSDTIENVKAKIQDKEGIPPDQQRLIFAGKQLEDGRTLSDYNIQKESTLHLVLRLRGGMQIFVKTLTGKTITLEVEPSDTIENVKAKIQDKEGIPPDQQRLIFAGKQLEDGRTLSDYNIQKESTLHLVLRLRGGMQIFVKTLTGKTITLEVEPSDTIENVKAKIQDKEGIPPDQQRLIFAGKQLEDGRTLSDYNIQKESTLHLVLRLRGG
linear M1-linked tri-ubiquitin, sequence (P0CG48 1-228): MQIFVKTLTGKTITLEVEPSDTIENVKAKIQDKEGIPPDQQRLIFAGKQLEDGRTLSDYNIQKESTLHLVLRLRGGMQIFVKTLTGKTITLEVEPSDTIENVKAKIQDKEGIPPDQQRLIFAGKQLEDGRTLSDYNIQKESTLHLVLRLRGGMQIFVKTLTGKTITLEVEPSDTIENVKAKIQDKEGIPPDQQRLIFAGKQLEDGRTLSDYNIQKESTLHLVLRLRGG

B1: Human NEMO 258-350 C347S (NEMO UBAN domain) (domain or fragment)
chain: MQLEDLKQQLQQAEEALVAKQEVIDKLKEEAEQHKIVMETVPVLKAQADIYKADFQAERQAREKLAEKKELLQEQLEQLQREYSKLKASSQES
B1: the Kd in data set [1] worked out at 1.6 µM; in data set [2] it was 4.1 µM; in data set [5] it was 9.6 µM; in data set [6] it was 6.4 µM. For the same molecule, the dH in data set [1] was -4.28 kcal/mol; in data set [2] it was -4.49 kcal/mol. In addition, the “stoichiometry N” value in data set [3] and in data set [4] was 2 NEMO monomers per poly-ubiquitin in each case. In the data set “SEC-MALS”, the binding result was “binds”.
